# In US20260224618A1 (ORICELL THERAPEUTICS, published 2026):
# Changes are numbered by the printed parent chain.
# B1: MSLN48 VHH-Fc fusion protein (Fc fusion)
# chain: QVQLQESGGGLVQPGGSLRLSCAASESIFSNYSASWYRQAPGKQRELVATIARTGSAFHLGSVKGRFTISRDNAKRTVYLQMNSLLPEDTAVYYCNVWDSWGQGTQVTVSS
# notes: Tested as bivalent VHH-Fc expressed in EXPI293; also called MSLN-VHH; MSLN nanobody 48; not shown: Fc of the VHH-Fc fusion
# B2: positive control antibody P4 (antibody, V domains shown)
# VH: QVQLQQSGPGLVTPSQTLSLTCAISGDSVSSNSATWNWIRQSPSRGLEWLGRTYYRSKWYNDYAVSVKSRMSINPDTSKNQFSLQLNSVTPEDTAVYYCARGMMTYYYGMDVWGQGTTVTVSS
# VL: QPVLTQSSSLSASPGASASLTCTLRSGINVGPYRIYWYQQKPGSPPQYLLNYKSDSDKQQGSGVPSRFSGSKDASANAGVLLISGLRSEDEADYYCMIWHSSAAVFGGGTQLTVLS
# notes: an AHC probe was used in the ForteBio assay; also called positive antibody P4
# B3: MSLN46 VHH-Fc fusion protein (Fc fusion)
# chain: QVQLQESGGGLVQAGGSLRLSCEASGHTDSYYPKAWFRQAPGKEREFVASIGWGGRMTAYADSVKGRFTVSRTYAKNTVYLQMNSLKPEDTAVYYCAAGIGWAPTADSGEYDYWGQGTQVTVSS
# notes: Tested as bivalent VHH-Fc expressed in EXPI293; also called MSLN-VHH; MSLN nanobody 46; not shown: Fc of the VHH-Fc fusion
# B4: MSLN53 VHH-Fc fusion protein (Fc fusion)
# chain: B3 chain with A14P, R19T
# notes: Tested as bivalent VHH-Fc expressed in EXPI293; also called MLSN-53; MSLN-VHH; not shown: Fc of the VHH-Fc fusion
# B5: MSLN52 VHH-Fc fusion protein (Fc fusion)
# chain: B3 chain with R19S, E23A
# notes: Tested as bivalent VHH-Fc expressed in EXPI293; also called MSLN-VHH; MSLN nanobody 52; not shown: Fc of the VHH-Fc fusion
# B6: MSLN50 VHH-Fc fusion protein (Fc fusion)
# chain: QVQLQESGGGLVQPGGSLRLSCAASGSISKIAIMGWYRQPPGNERELIAIANMTGTGVYRDTVKGRFTIRRDNAKNMVYLQMNNLKSEDTGVYYCHARQLGVGSFESWGQGTQVTVSS
# notes: Tested as bivalent VHH-Fc expressed in EXPI293; also called MSLN-VHH; MSLN nanobody 50; not shown: Fc of the VHH-Fc fusion
# B7: MSLN45 VHH-Fc fusion protein (Fc fusion)
# chain: QVQLQESGGGLVQPGGSLRLSCAASGSIFSINAMGWYRQPPGKQRELVAATSWGGRTNYADSVEGRFTISRDNAKNTVYLQMNSLKPEDTAVYYCKLWDGSSWDIYWGQGTQVTVSS
# notes: Tested as bivalent VHH-Fc expressed in EXPI293 and detected with anti-human IgG Fc; also called MSLN-VHH; MSLN nanobody 45; not shown: Fc of the VHH-Fc fusion
# B8: MSLN57 VHH-Fc fusion protein (Fc fusion)
# chain: B7 chain with L11M
# notes: Tested as bivalent VHH-Fc expressed in EXPI293; also called MSLN-VHH; MSLN nanobody 57; not shown: Fc of the VHH-Fc fusion
# B9: MSLN51 VHH-Fc fusion protein (Fc fusion)
# chain: B7 chain with P14T
# notes: Tested as bivalent VHH-Fc expressed in EXPI293; also called MSLN-VHH; MSLN nanobody 51; not shown: Fc of the VHH-Fc fusion
# B10: MSLN47 VHH-Fc fusion protein (Fc fusion)
# chain: B7 chain with P14A
# notes: Tested as bivalent VHH-Fc expressed in EXPI293; also called MSLN-VHH; MSLN nanobody 47; not shown: Fc of the VHH-Fc fusion
# B11: MSLN59 VHH-Fc fusion protein (Fc fusion)
# chain: B7 chain with A23T, G26K, S27R, F29D
# notes: Tested as bivalent VHH-Fc expressed in EXPI293; also called MSLN-VHH; MSLN nanobody 59; not shown: Fc of the VHH-Fc fusion
# B12: MSLN55 VHH-Fc fusion protein (Fc fusion)
# chain: B7 chain with P14S, R19K, S27N, F29A
# notes: Tested as bivalent VHH-Fc expressed in EXPI293; also called MSLN-VHH; MSLN nanobody 55; not shown: Fc of the VHH-Fc fusion
# B13: MSLN58 VHH-Fc fusion protein (Fc fusion)
# chain: B7 chain with L11T, A23E, S25V, S27D, I28S, F29V
# notes: Tested as bivalent VHH-Fc expressed in EXPI293; also called MSLN-VHH; MSLN nanobody 58; not shown: Fc of the VHH-Fc fusion
# What was measured:
# Human MSLN-His antigen [1] = molecular target: T1, Human MSLN-His antigen (human, UniProt Q13421 296-580, limits assumed); test: ELISA, plate coated with 2 ug/ml MSLN-His, VHH-Fc diluted 2.5-fold from 200 nM, anti-human IgG Fc HRP, OD450
# T1 construct: also called MSLN-his protein; human MSLN protein; not shown: His tag
# Procedure: (§1) A high-absorption 384-well plate was coated with 2 μg/ml of MSLN-His […], and left standing at 4° C. overnight. The plate was washed three times with 1×PBST, and blocked with 5% of skimmed milk at room temperature for 2 h. During the blocking, the antibody MSLN-VHH was diluted 2.5-fold starting from a concentration of 200 nM for a total of 11 gradients. At the end of blocking, the plate was washed three times with 1×PT, into which were added corresponding diluted primary antibodies at 30 μl/well and incubated with shaking at room temperature for 1 h. The plate was washed three times with 1×PBST, into which were then added secondary antibodies Anti-human IgG Fc Antibody HRP (abcam, Item No. ab99759) and incubated at room temperature for 30-60 min. The plate was washed seven times with 1×PBST, into which was then added a TMB developer, and 2M phosphoric acid was added 3-5 min later to stop the reaction. The absorbance was read at a wavelength of 450 nm.
# Human MSLN-His antigen [2] = molecular target: T1, Human MSLN-His antigen; test: ELISA, plate coated with 2 ug/ml MSLN-His, antibody diluted 2.5-fold from 200 nM, anti-human IgG Fc HRP, OD450
# Procedure: as §1
# Human MSLN-His antigen [3] = molecular target: T1, Human MSLN-His antigen; test: BLI (ForteBio), AHC probe, nanobody at 100 nM, human MSLN-His 2-fold diluted from 100 nM
# Procedure: MSLN nanobodies with flow cytometric binding activity were diluted to 100 nM and added into a 384-well plate. Human MSLN-His antigens were 2-fold diluted to 100 nM for a total of 7 gradients, and added into a 384-well plate. An AHC probe (Sartorius, Item No. 18-5060) was used, with the binding time set to 180 sec, the dissociation time to 360 sec, the baseline to 60 sec, and the regeneration cycle to three times, each for 5 sec. After then, the binding-dissociation curve was fitted using software to calculate the affinity of the antibodies.
# T1 sequence (Q13421 other isoform, or with tags, fused parts or gaps limits assumed): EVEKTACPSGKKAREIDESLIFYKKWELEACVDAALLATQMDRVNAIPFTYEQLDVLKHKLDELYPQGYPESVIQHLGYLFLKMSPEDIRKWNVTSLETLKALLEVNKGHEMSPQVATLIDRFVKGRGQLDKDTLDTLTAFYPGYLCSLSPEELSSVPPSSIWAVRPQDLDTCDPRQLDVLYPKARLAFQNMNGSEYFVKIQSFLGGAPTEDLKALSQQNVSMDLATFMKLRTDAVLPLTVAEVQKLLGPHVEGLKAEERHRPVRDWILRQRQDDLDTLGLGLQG
Binder,EC50 (read off the curve) (Human MSLN-His antigen [1]),EC50 (read off the curve) (Human MSLN-His antigen [2]),Kd (Human MSLN-His antigen [3])
B1,~7 nM,,
B2,,~0.8 nM,
B3,~1 nM,,2.15 nM
B4,~0.8 nM,,1.41 nM
B5,~1 nM,,2.58 nM
B6,~10 nM,,
B7,~0.7 nM,,
B8,~0.6 nM,,
B9,~0.8 nM,,
B10,~0.8 nM,,
B11,~0.5 nM,,
B12,~0.5 nM,,
B13,~0.4 nM,,
